± gives the uncertainty stated by the source.
Experiment: protein stability index of a GFP-peptide fusion (yeast GPS) (PSI 1-4); higher = more stable; sorted into four equal gates, so the index is relative within each strain
Summary of the method: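 Plasmids isolated from each sorting gate were PCR-amplified and Illumina-sequenced, and barcodes assigned the reads to strains. The gates, four of equal size, were set by GFP/Cherry fluorescence ratio on mid-log cultures in leucine-free medium. These cultures were yeast carrying a pooled library of tiled 17-residue yeast protein peptides fused downstream of GFP on a plasmid that also expresses Cherry. The protein stability index is the sum of every gate's read frequency times its gate number.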

| Sequence | protein stability index (doa10∆) | protein stability index (pdr5∆) | protein stability index (san1∆) | protein stability index (ubr1∆) |
| --- | --- | --- | --- | --- |
| ELALLNHWRQNKGRAVY [BRR2] | 1.21 ± 0.21 | 1.21 ± 0.13 | 1.21 ± 0.29 | 1.1 ± 0.083 |
| HIPICVTFSFFNPQDTE [RRP45] | 1.56 ± 0.048 | 1.61 ± 0.06 | 1.28 ± 0.1 | 1.58 ± 0.046 |
| AFSYEQAQLRIDDKTQN [DIS3] | 3.32 ± 0.21 | 2.81 ± 0.14 | 2.87 ± 0.12 | 2.25 ± 0.24 |
| DLEWQELTSFSSQPLEP [DSN1] | 3.05 ± 0.054 | 3.05 ± 0.053 | 2.98 ± 0.054 | 2.98 ± 0.036 |
| KVVNFWLLHNGFSTGIG [RPO21] | 3.17 ± 0.16 | 2.25 ± 0.1 | 2.51 ± 0.13 | 1.37 ± 0.094 |
| IWPAEDALRRGMLAMAS [MED4] | 3.12 ± 0.11 | 3.24 ± 0.099 | 3.05 ± 0.075 | 3.27 ± 0.086 |
| TVELQVGLKNYDPQRDK [RPL1A] | 3.05 ± 0.091 | 3.12 ± 0.082 | 3.12 ± 0.094 | 3.18 ± 0.076 |
| NTHLGARNVQVHQEPYV [RPS0A] | 2.06 ± 0.087 | 2.25 ± 0.053 | 2.59 ± 0.09 | 2.11 ± 0.058 |
| EQKNTAKEELNGLKDQL [YIL149C/MLP2] | 3.19 ± 0.1 | 3.32 ± 0.16 | 3.12 ± 0.054 | 3.31 ± 0.07 |
| GIVDELAYAVLGIALIA [RPN1] | 1.76 ± 0.1 | 1.42 ± 0.1 | 1.48 ± 0.16 | 1.17 ± 0.062 |
| LVEVEDEKIEAIKKKEK [SRB7] | 2.57 ± 0.16 | 3.09 ± 0.16 | 3.05 ± 0.094 | 3.39 ± 0.17 |
| TLILIQNPENLLSEKIL [SIR3] | 2.98 ± 0.062 | 2.88 ± 0.07 | 2.87 ± 0.046 | 3.16 ± 0.06 |
| RIMEKSVILSVISMFVL [YML031W/NDC1] | 1.31 ± 0.14 | 1.44 ± 0.1 | 1.17 ± 0.11 | 1.12 ± 0.049 |
| TFIDKERHQKQLNEKLV [YCS4] | 2.62 ± 0.13 | 2.6 ± 0.16 | 2.81 ± 0.078 | 2.65 ± 0.093 |
| MYQMITMGGNAELELVD [SMC4] | 2.81 ± 0.074 | 2.47 ± 0.1 | 2.6 ± 0.08 | 2.54 ± 0.072 |
| TLLPGLQDEVMNIKPVQ [RPS2] | 1.21 ± 0.14 | 1.35 ± 0.13 | 1.18 ± 0.26 | 1.09 ± 0.14 |
| AHTPMLQMYSKIRRHPN [FAS1] | 2.81 ± 0.051 | 3.03 ± 0.063 | 2.96 ± 0.06 | 2.95 ± 0.048 |
| QIENLNEVCLEKENRFE [SMC4] | 3.27 ± 0.17 | 3.48 ± 0.1 | 2.69 ± 0.23 | 3.4 ± 0.068 |
| PKNSKTPQSKGFVRNSF [RPO31] | 3.17 ± 0.15 | 3.03 ± 0.14 | 2.92 ± 0.12 | 3.18 ± 0.068 |
| LNSYWVNQDSTYKYFEV [RPL15A] | 3.23 ± 0.061 | 3.27 ± 0.076 | 3.32 ± 0.041 | 3.2 ± 0.058 |
| NKNGENKKIGKRPPEIM [SIR4] | 3.09 ± 0.12 | 3.21 ± 0.11 | 3.28 ± 0.14 | 3.28 ± 0.091 |
| PQSAPNQMGMGTNNGMS [YOR098C/NUP1] | 3.4 ± 0.12 | 3.14 ± 0.13 | 3.29 ± 0.098 | 3.31 ± 0.096 |
| GELVLDIEVPDVNALKF [SNF12] | 3.06 ± 0.22 | 3.55 ± 0.12 | 2.77 ± 0.077 | 3.15 ± 0.11 |
| TNAGYTIELAGGGYFSA [FAS1] | 2.39 ± 0.078 | 2.28 ± 0.088 | 1.72 ± 0.11 | 2.09 ± 0.068 |
| TPESVKPANASHAIRLG [RGR1] | 2.63 ± 0.049 | 2.42 ± 0.037 | 2.98 ± 0.045 | 2.47 ± 0.039 |
| GLMSANNIIAEGIEKMG [FAS2] | 1.68 ± 0.12 | 1.74 ± 0.098 | 1.58 ± 0.18 | 1.48 ± 0.084 |

Reference: the supplement of paper PMC9732359
